From patent US20170081400A1 (CEPHALON, published 2017)
Positions count from the first letter of the chain named.

T1: human TL1A extracellular domain with N-terminal HIS and FLAG tag (human) (UniProt O95150)
T1 sequence: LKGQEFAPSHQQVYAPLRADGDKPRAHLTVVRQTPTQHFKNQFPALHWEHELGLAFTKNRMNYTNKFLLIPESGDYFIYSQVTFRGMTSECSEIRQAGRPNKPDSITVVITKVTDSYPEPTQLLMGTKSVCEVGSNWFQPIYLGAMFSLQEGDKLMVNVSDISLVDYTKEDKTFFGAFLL

T2: human TL1A extracellular domain with N-terminal HIS and FLAG tag (human, UniProt O95150 72-251)
T2 construct: whole entry named. ~70 kDa fraction purified by gel filtration
T2 sequence: T1 sequence

T3: single-site biotinylated human TL1A (human, UniProt O95150 72-251, single-site biotinylated (site not stated))
T3 construct: construct used for biotinylation not described
T3 sequence: T1 sequence

B1: 320-185 (antibody, human IgG1, name in Kabat numbering, V domains shown)
VH: QVQLVQSGAEVKKPGASVKVSCKASGYTFTSYDINWVRQAPGQGLEWMGWLNPNSGNTGYAQKFQGRVTMTADRSTSTAYMELSSLRSEDTAVYYCAREVPETAAFEYWGQGTLVTVSS
VL: QSVLTQPPSVSGAPGQRVTISCTSSSSDIGAGLGVHWYQQLPGTAPKLLIEGYYNRPSGVPDRFSGSKSGTSASLTITGLSPEDEGDYYCQSYDGTLSALFGGGTKLTVLG
notes: human IgG1, lambda
B2: 320-191 (antibody, human IgG1, name in Kabat numbering, V domains shown)
VH: B1 VH
VL: B1 VL with S81Y
notes: human IgG1, lambda
B3: 320-188 (antibody, human IgG1, name in Kabat numbering, V domains shown)
VH: B1 VH
VL: B1 VL with S81H
notes: human IgG1, lambda
B4: 320-189 (antibody, human IgG1, name in Kabat numbering, V domains shown)
VH: B1 VH
VL: B1 VL with S81K
notes: human IgG1, lambda
B5: 320-187 (antibody, human IgG1, name in Kabat numbering, V domains shown)
VH: B1 VH
VL: B1 VL with S81D
notes: human IgG1, lambda
B6: 320-190 (antibody, human IgG1, name in Kabat numbering, V domains shown)
VH: B1 VH
VL: B1 VL with S81W
notes: human IgG1, lambda
B7: 320-186 (antibody, human IgG1, name in Kabat numbering, V domains shown)
VH: B1 VH
VL: B1 VL with S81Q
notes: human IgG1, lambda
B8: 320-331 (antibody, human IgG1, name in Kabat numbering, V domains shown)
VH: B1 VH
VL: B1 VL with S81L, Y93W
notes: human IgG1, lambda
B9: 320-547 (antibody, human IgG1, name in Kabat numbering, V domains shown)
VH: B1 VH with N57Y
VL: B1 VL with S81L
notes: human IgG1, lambda
B10: 320-583 (antibody, human IgG1, name in Kabat numbering, V domains shown)
VH: B1 VH
VL: B1 VL with G32A, S81L, Y93W
notes: human IgG1, lambda
B11: 320-584 (antibody, human IgG1, name in Kabat numbering, V domains shown)
VH: B1 VH
VL: B1 VL with L33S, S81L, Y93W
notes: human IgG1, lambda
B12: 320-585 (antibody, human IgG1, name in Kabat numbering, V domains shown)
VH: B1 VH
VL: B1 VL with L33Q, S81L, Y93W
notes: human IgG1, lambda
B13: 320-586 (antibody, human IgG1, name in Kabat numbering, V domains shown)
VH: B1 VH
VL: B1 VL with H36L, S81L, Y93W
notes: human IgG1, lambda
B14: 320-457 (antibody, human IgG1, name in Kabat numbering, V domains shown)
VH: B1 VH with I34D
VL: B1 VL with S81L

target: T1, human TL1A extracellular domain with N-terminal HIS and FLAG tag (human); experiment: cell-based or functional assay

Row | Antibody IC50, TL1A induced caspase potency assay in TF-1 cells [mg/L] | Fold improvement over 320-179, TL1A induced caspase potency assay in TF-1 cells [fold] | Molecule
1 | 0.02 | 2 | B1
2 | 0.02 | 2 | B2
3 | 0.01 | 4 | B3
4 | 0.11 | 0 | B4
5 | 0.02 | 2 | B5
6 | 0.02 | 2 | B6
7 | 0.03 | 1 | B7

target: membrane TL1A on human PBMCs (human) (UniProt O95150); experiment: flow cytometry on human PBMCs, antibody staining against CD14 [left plot]

Row | number in the upper left quadrant (antibody-positive, CD14-negative cells) | number in the upper right quadrant (antibody-positive, CD14-positive cells) | Molecule
8 | 0.51 | 0.07 | Isotype control (antibody)

target: T2, human TL1A extracellular domain with …; experiment: SPR run 1; purified antibody on Protein A; TL1A 10 ug/mL; timepoint 59
From the text: (§1) 1.5. Antibody expression and antigen binding as determined by SPR. Using a CM5 sensor chip (GE Healthcare) Protein A (Pierce) was coupled to the chip surface using an amine coupling kit (GE Healthcare). Protein A was coupled on flow cell 1 and 2 (or alternatively 3 and 4) using a BIACORE® T200. […] The amount of supernatant or purified protein (as well as the concentration) injected during the capture stage varied between runs and is specified in the header of the Tables 3-11. At the end of injection of the supernatant or purified antibody the change in response units was measured. This value was reported as Capture Level in Tables 3-11. […] The response units were measured prior to the end of the dissociation phase. […] The sensorgrams were double referenced (flow cell 2 is subtracted from flow cell 1 and a buffer blank). As there were a large number of antibody variants to screen, these were screened across different runs (Tables 3-11). […] A summary of the conditions used in each run is below:
(§2) 2.1. […] In some experiment the antibodies were purified using Protein A chromatography (See 1.4) and purified antibodies were used in BIACORE® (GE Healthcare) experiments.

Row | TL1A Binding Level (Early) [RU] | Molecule
9 | 137 | B1
10 | 140 | B2
11 | 136 | B3
12 | 130 | B4
13 | 134 | B5
14 | 136 | B6
15 | 136 | B7

target: T3, single-site biotinylated human TL1A; experiment: competition ELISA: antibody dilutions pre-incubated with biotinylated human TL1A (1 µg/ml), added to plate-coated DR3/Fc; bound TL1A detected with streptavidin-HRP; blocked partner DR3/Fc [top panel]
Description: (§3) 1.8. […] DR3/Fc Chimera (R&D Systems) or DcR3/Fc Chimera (R&D Systems) was coated onto a 96-well plate (Maxisorp, Nunc) at a concentration of 2 μg/ml.

Row | IC50 (read off the curve) [mg/L] | Molecule
16 | ~0.08 | B8
17 | ~0.07 | B9

target: T3, single-site biotinylated human TL1A; experiment: competition ELISA: antibody dilutions pre-incubated with biotinylated human TL1A (1 µg/ml), added to plate-coated DcR3/Fc; bound TL1A detected with streptavidin-HRP; blocked partner DcR3/Fc [bottom panel]
Description: as §3

Row | IC50 (read off the curve) [mg/L] | Molecule
18 | ~1 | B10
19 | ~2 | B11
20 | ~2 | B12
21 | ~2 | B13

target: T1, human TL1A extracellular domain with N-terminal HIS and FLAG tag (human); experiment: SPR Run 6, purified Ab captured on Protein A, TL1A 5 ug/mL, timepoint 44

Row | TL1A Binding Level (Early) [RU] | Molecule
22 | 6 | B14

target: T1, human TL1A extracellular domain with N-terminal HIS and FLAG tag (human); experiment: SPR Run 6, purified Ab captured on Protein A, TL1A 5 ug/mL, timepoint 170

Row | TL1A Binding Level (Late) [RU] | Molecule
23 | 4 | B14

target: T2, human TL1A extracellular domain with …; experiment: SPR run 1; purified antibody on Protein A; TL1A 10 ug/mL; timepoint 590
From the text: as §1, §2

Row | TL1A Binding Level (Late) [RU] | Molecule
24 | 114 | B1
25 | 117 | B2
26 | 113 | B3
27 | 107 | B4
28 | 112 | B5
29 | 113 | B6
30 | 113 | B7
